# Data published in publication PMC3462190, “A Peptidic Unconjugated GRP78/BiP Ligand Modulates the Unfolded Protein Response and Induces Prostate Cancer Cell Death” (PLoS ONE, 2012).
# “Also recorded” adds a separate entry of the source. Where no end group is shown, it is not given here.
# B1: Bag-1 peptide: internal sequence of 68 amino acids of Bag-1 (Bag1-L 202–269), HA-tagged, expressed from pcDNA3 (peptide)
# chain: TPLSALGIQDGCRVMLIGKKNSPQEEVELKKLKHLEKSVEKIADQLEELNKELTGIQQGFLPKDLQAE
# modifications: also: HA tag, end not given here
# Test system: 22Rv.1 xenograft tumor
# Assay: 22Rv.1 tumor xenograft study
# Format: in vivo, athymic nude mice
# Settings: for tumor growth inhibition in vivo: xenografts of single 22Rv.1 clones stably expressing the peptide
# Description: All animal experiments were performed according to European and German statutory regulations. For generation of xenograft models 5×10^6 LNCaP cells were resuspended in a solution of 50% Matrigel® (BD Bioscience, Heidelberg, Germany) in PBS or 5×10^6 22Rv.1 cells in 100 µl of PBS were subcutaneously injected into both flanks of 6–8 week-old athymic nude mice. Tumor size was measured with a caliper every week. Tumors derived from the injection of stable clones overexpressing the Bag-1 peptide were analyzed over a period of 9 weeks while tumors from cells transfected with the empty expression vector or expressing the N-terminal, the C-terminal and the ΔN-peptide were analyzed over 5 weeks. Tumor size was assessed measuring three perpendicular diameters according to the formula: V = (1/6) [π] (d1d2d3), where π is a mathematic constant and d1, d2 and d3 represent the three spatial dimensions (width, depth and height). Mice were euthanized by cervical dislocation and the tumors removed for further analysis.
# Figure 4 The Bag-1 peptide inhibits prostate cancer cell growth in vivo. A. Stable clones of 22Rv.1 cells show reduced cell viability in vitro. Stable clones were seeded in a 96-well plate and the cell number in each well was estimated by measuring the ratio between the wavelength of excitation and emission 560/590 nm using the CellTiter-Blue™ proliferation assay. The bar charts represent the mean of at least four independent experiments ±SD (*p<0.05). B. Determination of the level of the Bag-1 expressed in the 22Rv.1 clones. Cellular extracts of 22v.1 stable clones were subjected to Western blot analysis. An anti-HA antibody was used to detect the peptide and an anti-β-actin antibody for equal loading control. C-D. The Bag-1 peptide reduces 22Rv.1 prostate tumor cell growth in vivo. Six-week old athymic nude mice were injected subcutaneously in both flanks with 5×10^6 cells of each stable clone. Tumor size was measured once per week using a caliper and expressed as tumor volume in mm^3. Shown are (C) the tumor volumes of clones transfected with empty expression vector and (D) clones expressing the Bag-1 peptide. Each point represents the mean volume and standard deviation of at least 5 to 10 tumors. E. Xenografts of stable clones expressing the Bag-1 peptide show increased apoptosis. Five-micron sections of formalin-fixed, paraffin-embedded tumor tissues were subjected to immunohistochemistry. Nuclei are stained blue-purple with hematoxylin while apoptotic cells detected with the TUNEL assay are stained brown. Representative sections of xenografts obtained from each 22Rv.1 stable clone were acquired with an Axioscop microscope (Zeiss). V: stands for empty vector expressing clone and P: peptide expressing clone.
# Figure 5 An N-terminal unfolded fragment of the Bag-1 peptide is sufficient to reduce tumor cell growth. A. Schematic diagram of the Bag-1 peptide and its deletion mutants. The ubiquitin-like domain is represented in blue and the BAG domain in red. The numbers refer to the amino acid positions of the different domains. The amino acid residues are numbered following the numbering for Bag-1L. B. Prediction of the secondary structure of the Bag-1 peptide, showing an N-terminal β-hairpin from the ubiquitin-like domain (blue) and a C-terminal α-helix from the BAG domain (red). C. Normalized circular dichroism spectra of the Bag-1 peptides. 30 µM of the Bag-1 peptide were measured in 20 mM KHPO4 buffer, pH 6.8 (black line). Its α-helical content was estimated to be approximately 25% by deconvolution of the spectra (red line). 12 µM of the N-term peptide (green line) and 11 µM of C-term (blue line) were measured under the same conditions. D. ^1H^15N-HSQC NMR spectrum of ^15N-labeled Bag-1 peptide (202–269) in 20 mm KHPO4 buffer, pH 6.8, at 23°C. […] The Hδ and Hε side chain signals of asparagine and glutamine are connected by thin lines. […]
molecule,measurement,setting,value
C-terminal peptide: 28 C-terminal fragment of the Bag-1 peptide (Bag-1L 241–269) (EKIADQLEELNKELTGIQQGFLPKDLQAE; not fully specified),tumor growth inhibition in vivo,,This effect was not seen
N-terminal peptide: N-terminal 40 residues of the Bag-1 peptide (Bag-1L 202–241) (TPLSALGIQDGCRVMLIGKKNSPQEEVELKKLKHLEKSVE; not fully specified),tumor growth inhibition in vivo,,reduces tumor growth in vivo; also recorded: growth inhibitory action of the peptides was also confirmed in xenograft models
ΔUbi peptide: Bag-1 peptide lacking the ubiquitin-like domain portion (Bag-1L 220–269) (KKNSPQEEVELKKLKHLEKSVEKIADQLEELNKELTGIQQGFLPKDLQAE; not fully specified),tumor growth inhibition in vivo,,This effect was not seen
B1,tumor volume,"22Rv.1 cells expressing the peptide (P42, P25 and P29), 9 weeks, empty vector: average 1.2 cm^3 in 4–8 weeks",0.4 cm^3
same,"Tumor weight, clone P25","22Rv.1 clone P25, termination 7–9 weeks, mean and SD of 4–10 tumors, vector clones 1.24–1.73 g",0.31 ± 0.14 g
same,"Tumor weight, clone P29","22Rv.1 clone P29, termination 9 weeks, mean and SD of 4–10 tumors, vector clones 1.24–1.73 g",0.42 ± 0.17 g
same,"Tumor weight, clone P42","22Rv.1 clone P42, termination 9 weeks, mean and SD of 4–10 tumors, vector clones 1.24–1.73 g",0.38 ± 0.20 g
same,tumor condition,"22Rv.1 peptide clone 25, mice euthanized earlier than 9 weeks",the tumors were necrotic
